The supplement of paper PMC9876800

System: peptide library, one residue held at a place counted from the S/T acceptor
Assay: relative phosphorylation of the sub-library (ratio to the mean residue at this position); higher = residue favoured
Conditions: human
Summary of the method: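 Purified recombinant kinases (human or orthologue constructs) were incubated in 384-well plates with biotinylated degenerate peptide sub-libraries, each fixing one residue at one position around a central Ser/Thr. Peptides were at 50 μM, with 50 μM ATP spiked with γ-32P-ATP, for 90 min under kinase-specific conditions. Spots on streptavidin membranes were phosphorimaged and quantified by densitometry. Relative sub-library phosphorylation is a ratio to the mean residue at that position.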

Chain of PAK6, construct: aa382-end (Q9NQU5 382-681, looked up): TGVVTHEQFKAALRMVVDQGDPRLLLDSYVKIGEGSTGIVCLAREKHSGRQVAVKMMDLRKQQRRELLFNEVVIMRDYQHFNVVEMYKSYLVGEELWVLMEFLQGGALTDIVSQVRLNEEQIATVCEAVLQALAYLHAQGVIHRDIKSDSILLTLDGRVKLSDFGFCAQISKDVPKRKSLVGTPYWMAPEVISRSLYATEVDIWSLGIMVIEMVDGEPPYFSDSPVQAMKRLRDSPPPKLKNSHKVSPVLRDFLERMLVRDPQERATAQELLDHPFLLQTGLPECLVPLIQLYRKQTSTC
Chain of SGK1, construct: aa61-end (O00141 61-431, looked up): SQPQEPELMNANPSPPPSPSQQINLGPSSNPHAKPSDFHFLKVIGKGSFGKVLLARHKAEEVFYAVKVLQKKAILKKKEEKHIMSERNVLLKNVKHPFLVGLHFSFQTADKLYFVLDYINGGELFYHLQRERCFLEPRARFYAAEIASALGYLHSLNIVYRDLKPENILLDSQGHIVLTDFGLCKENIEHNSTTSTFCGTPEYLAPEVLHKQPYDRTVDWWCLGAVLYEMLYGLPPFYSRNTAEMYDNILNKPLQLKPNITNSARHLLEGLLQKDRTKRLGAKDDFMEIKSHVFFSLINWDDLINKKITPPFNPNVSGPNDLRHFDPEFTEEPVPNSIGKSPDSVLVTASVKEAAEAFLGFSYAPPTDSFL
Chain of ERN2, construct: aa490-end (Q76MJ5 490-926, looked up): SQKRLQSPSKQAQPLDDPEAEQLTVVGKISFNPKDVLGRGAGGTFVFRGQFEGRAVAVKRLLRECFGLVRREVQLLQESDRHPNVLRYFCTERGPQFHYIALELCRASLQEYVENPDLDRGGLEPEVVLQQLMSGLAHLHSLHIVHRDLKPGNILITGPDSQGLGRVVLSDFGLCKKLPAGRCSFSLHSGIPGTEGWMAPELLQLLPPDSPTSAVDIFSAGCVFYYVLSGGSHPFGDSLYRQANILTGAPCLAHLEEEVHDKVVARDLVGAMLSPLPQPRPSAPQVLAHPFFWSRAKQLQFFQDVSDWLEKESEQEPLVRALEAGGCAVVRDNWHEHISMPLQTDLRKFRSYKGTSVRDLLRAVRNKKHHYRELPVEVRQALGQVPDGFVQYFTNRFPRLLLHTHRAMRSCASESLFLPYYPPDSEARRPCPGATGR
Chain of GRK6, construct: Full length (P43250 whole entry, looked up): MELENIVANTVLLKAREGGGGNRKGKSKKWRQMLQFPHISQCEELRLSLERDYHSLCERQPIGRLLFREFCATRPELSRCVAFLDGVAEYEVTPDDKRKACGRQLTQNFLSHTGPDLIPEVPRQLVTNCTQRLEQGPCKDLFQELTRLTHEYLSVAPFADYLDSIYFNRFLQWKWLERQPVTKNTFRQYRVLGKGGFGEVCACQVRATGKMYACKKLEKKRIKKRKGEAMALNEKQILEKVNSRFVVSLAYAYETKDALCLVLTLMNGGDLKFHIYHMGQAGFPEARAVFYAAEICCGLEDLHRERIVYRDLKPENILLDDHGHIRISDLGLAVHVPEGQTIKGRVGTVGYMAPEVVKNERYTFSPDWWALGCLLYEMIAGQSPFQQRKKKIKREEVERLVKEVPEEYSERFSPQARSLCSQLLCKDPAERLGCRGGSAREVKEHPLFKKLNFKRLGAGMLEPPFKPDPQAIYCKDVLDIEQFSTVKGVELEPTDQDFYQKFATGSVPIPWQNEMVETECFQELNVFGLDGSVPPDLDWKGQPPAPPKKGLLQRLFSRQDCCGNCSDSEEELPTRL

PAK6, construct: aa382-end (from UniProt Q9NQU5)
relative phosphorylation
Conditions | at +1 | at +2 | at +3 | at +4 | at -1 | at -2 | at -3 | at -4 | at -5
A fixed | 0.845 | 5.4 | 1.16 | 1.06 | 0.921 | 0.523 | 0.766 | 1.19 | 1.21
D fixed | 0.225 | 0.407 | 0.707 | 0.827 | 0.361 | 0.117 | 0.216 | 0.554 | 0.759
E fixed | 0.233 | 0.264 | 1.08 | 0.69 | 0.256 | 0.109 | 0.18 | 0.635 | 0.568
F fixed | 1.37 | 0.835 | 0.986 | 0.672 | 1.12 | 0.626 | 0.638 | 0.778 | 0.855
G fixed | 0.376 | 0.695 | 1.18 | 1.29 | 0.619 | 0.31 | 0.553 | 1.24 | 1.19
H fixed | 0.97 | 0.78 | 1.26 | 1.02 | 1.19 | 1.1 | 0.753 | 0.941 | 0.884
I fixed | 1.56 | 0.752 | 0.887 | 0.623 | 1.14 | 0.767 | 1.11 | 1.33 | 1.41
K fixed | 0.887 | 0.594 | 0.818 | 1.31 | 1.76 | 0.97 | 4.26 | 1.63 | 1.59
L fixed | 1.63 | 0.798 | 1.11 | 0.609 | 1.29 | 0.662 | 0.802 | 0.903 | 1.15
M fixed | 1.44 | 0.706 | 1.05 | 0.786 | 1.09 | 0.461 | 0.655 | 0.943 | 0.875
N fixed | 0.49 | 0.704 | 0.72 | 1.03 | 0.917 | 0.276 | 0.479 | 0.792 | 0.873
P fixed | 0.313 | 0.643 | 1.3 | 1.96 | 0.304 | 0.501 | 0.561 | 0.968 | 0.892
Q fixed | 0.693 | 0.526 | 0.909 | 1.15 | 0.78 | 0.456 | 0.674 | 0.81 | 0.784
R fixed | 1.07 | 0.67 | 0.974 | 1.57 | 2.53 | 8.47 | 3.53 | 1.58 | 1.53
V fixed | 1.61 | 1 | 0.897 | 0.753 | 0.627 | 0.5 | 0.742 | 1.19 | 1.02
W fixed | 1.86 | 0.891 | 0.905 | 0.853 | 0.9 | 0.409 | 0.56 | 0.762 | 0.691
Y fixed | 1.42 | 1.33 | 1.07 | 0.807 | 1.2 | 0.737 | 0.525 | 0.755 | 0.731
pThr fixed | 0.461 | 0.494 | 0.647 | 0.905 | 0.272 | 0.192 | 0.315 | 0.558 | 0.665
pTyr fixed | 0.684 | 0.465 | 0.993 | 0.687 | 0.358 | 0.219 | 0.379 | 0.61 | 0.496

ERN2, construct: aa490-end (from UniProt Q76MJ5)
relative phosphorylation
Conditions | at +1 | at +2 | at +3 | at +4 | at -1 | at -2 | at -3 | at -4 | at -5
A fixed | 0.889 | 0.315 | 0.399 | 0.712 | 1.08 | 0.826 | 0.865 | 0.986 | 0.969
D fixed | 0.292 | 0.208 | 0.22 | 0.365 | 0.7 | 0.969 | 0.947 | 0.892 | 0.961
E fixed | 0.428 | 0.217 | 0.165 | 0.347 | 1.19 | 1.29 | 1.02 | 0.918 | 0.87
F fixed | 0.683 | 0.733 | 1.24 | 0.849 | 0.953 | 0.865 | 0.676 | 0.677 | 0.695
G fixed | 1.16 | 0.332 | 0.407 | 0.844 | 0.758 | 1.11 | 1.32 | 1.04 | 1.01
H fixed | 0.924 | 0.767 | 1.27 | 1.08 | 1.6 | 1.08 | 1.17 | 1.17 | 1.24
I fixed | 0.78 | 1.09 | 1.22 | 1.04 | 0.459 | 0.672 | 0.792 | 0.732 | 0.796
K fixed | 2.19 | 2.21 | 1.39 | 1.94 | 0.955 | 1.43 | 1.12 | 1.53 | 1.6
L fixed | 0.702 | 1.39 | 1.38 | 0.935 | 0.58 | 0.592 | 0.66 | 0.693 | 0.691
M fixed | 1.24 | 1.32 | 0.95 | 0.996 | 0.951 | 0.814 | 0.861 | 0.751 | 0.704
N fixed | 0.997 | 0.507 | 0.441 | 0.763 | 0.986 | 1.1 | 1.21 | 1.38 | 1.17
P fixed | 0.247 | 0.305 | 0.346 | 1.15 | 1.47 | 1.37 | 1.09 | 0.914 | 0.915
Q fixed | 1.44 | 0.787 | 0.591 | 1.04 | 1.42 | 1.25 | 1.27 | 1.14 | 1.14
R fixed | 2.95 | 2.57 | 3.56 | 1.81 | 0.94 | 1.5 | 1.42 | 1.57 | 1.78
V fixed | 0.809 | 1.16 | 0.669 | 0.86 | 0.927 | 0.732 | 0.776 | 0.759 | 0.704
W fixed | 0.572 | 0.72 | 1.45 | 1.21 | 0.798 | 0.651 | 0.875 | 0.994 | 0.893
Y fixed | 0.694 | 2.36 | 1.3 | 1.04 | 1.23 | 0.769 | 0.941 | 0.858 | 0.858
pThr fixed | 0.298 | 0.212 | 0.237 | 0.355 | 0.355 | 0.648 | 0.798 | 0.779 | 0.732
pTyr fixed | 0.286 | 0.235 | 0.283 | 0.296 | 0.692 | 0.694 | 0.652 | 0.474 | 0.562

GRK6, construct: Full length (from UniProt P43250)
relative phosphorylation
Conditions | at +1 | at +2 | at +3 | at +4 | at -1 | at -2 | at -3 | at -4 | at -5
A fixed | 0.673 | 1.15 | 0.704 | 0.819 | 0.727 | 0.898 | 0.871 | 1.07 | 1.01
D fixed | 1.13 | 1.55 | 2.51 | 2.04 | 1.42 | 0.993 | 1.73 | 1.37 | 1.41
E fixed | 2.44 | 1.11 | 3.21 | 1.96 | 1.35 | 1.02 | 1.66 | 1.44 | 1.31
F fixed | 1.1 | 0.983 | 0.866 | 0.826 | 0.903 | 1.19 | 0.803 | 0.781 | 1.03
G fixed | 0.61 | 0.867 | 0.716 | 0.91 | 0.601 | 0.761 | 0.793 | 0.935 | 0.932
H fixed | 0.721 | 0.978 | 0.758 | 0.914 | 1.35 | 0.895 | 0.92 | 1.01 | 0.988
I fixed | 1.44 | 1.17 | 0.665 | 0.78 | 0.817 | 0.848 | 0.778 | 0.951 | 1.06
K fixed | 0.654 | 0.7 | 0.59 | 0.796 | 0.854 | 0.878 | 0.806 | 0.955 | 0.873
L fixed | 1.11 | 0.765 | 0.695 | 0.764 | 1.1 | 1.88 | 0.914 | 0.98 | 0.879
M fixed | 1.25 | 0.954 | 0.78 | 0.946 | 0.948 | 1.09 | 0.852 | 0.953 | 0.882
N fixed | 0.771 | 0.893 | 0.726 | 0.864 | 1.29 | 1.02 | 1.08 | 1.03 | 0.988
P fixed | 0.36 | 0.512 | 0.631 | 1.16 | 0.692 | 0.599 | 0.716 | 0.88 | 0.864
Q fixed | 1.03 | 0.763 | 0.653 | 0.852 | 0.82 | 0.87 | 0.899 | 0.887 | 0.775
R fixed | 0.736 | 0.811 | 0.696 | 0.626 | 0.942 | 1.2 | 1.59 | 1 | 0.928
V fixed | 1.24 | 1.43 | 0.821 | 0.763 | 0.947 | 0.766 | 0.713 | 0.844 | 1.06
W fixed | 0.794 | 1.16 | 0.991 | 1.12 | 0.745 | 1.23 | 0.937 | 0.997 | 1.01
Y fixed | 0.944 | 1.19 | 0.985 | 0.858 | 1.5 | 0.863 | 0.93 | 0.922 | 0.999
pThr fixed | 2.88 | 1.34 | 1.58 | 3.36 | 0.96 | 1.16 | 2.9 | 1.6 | 1.52
pTyr fixed | 3.28 | 1.43 | 1.67 | 2.06 | 1.5 | 1.51 | 1.82 | 1.82 | 1.7

SGK1, construct: aa61-end (from UniProt O00141)
relative phosphorylation
Conditions | at +1 | at +2 | at +3 | at +4 | at -1 | at -2 | at -3 | at -4 | at -5
A fixed | 0.603 | 1.03 | 0.911 | 1.01 | 0.815 | 1.22 | 0.388 | 1.06 | 0.955
D fixed | 0.457 | 0.581 | 1.1 | 0.881 | 0.63 | 0.242 | 0.147 | 0.679 | 0.427
E fixed | 0.461 | 0.537 | 1.14 | 1.03 | 0.483 | 0.227 | 0.157 | 0.749 | 0.453
F fixed | 2.32 | 0.768 | 0.975 | 0.795 | 0.768 | 0.493 | 0.16 | 0.613 | 0.62
G fixed | 0.766 | 1.06 | 1.33 | 1.17 | 1.73 | 0.758 | 0.268 | 1.04 | 0.948
H fixed | 0.889 | 1.6 | 1.35 | 1.33 | 1.25 | 0.946 | 0.757 | 1.01 | 0.99
I fixed | 1.45 | 1.18 | 0.784 | 0.863 | 0.395 | 0.28 | 0.145 | 0.641 | 0.7
K fixed | 0.861 | 0.906 | 1.17 | 1.05 | 1.38 | 3.57 | 1.4 | 1.98 | 2.38
L fixed | 1.22 | 1.27 | 0.975 | 0.702 | 0.751 | 0.401 | 0.149 | 0.699 | 0.617
M fixed | 1.49 | 0.948 | 0.833 | 0.936 | 1.05 | 0.335 | 0.157 | 0.838 | 0.736
N fixed | 0.881 | 1.13 | 0.976 | 1.22 | 1.52 | 0.55 | 0.245 | 0.825 | 0.852
P fixed | 0.859 | 0.94 | 0.921 | 1.31 | 1.25 | 0.388 | 0.296 | 1.17 | 0.882
Q fixed | 0.974 | 0.674 | 0.939 | 0.921 | 0.893 | 0.544 | 0.443 | 0.902 | 0.744
R fixed | 1.01 | 1.58 | 1.01 | 1.03 | 1.64 | 5.91 | 11.7 | 2.89 | 3.67
V fixed | 1.16 | 1.01 | 0.753 | 0.737 | 0.471 | 0.352 | 0.152 | 0.693 | 0.675
W fixed | 0.7 | 0.737 | 0.892 | 1.1 | 0.692 | 0.332 | 0.225 | 0.59 | 0.626
Y fixed | 0.906 | 1.05 | 0.934 | 0.912 | 1.28 | 0.452 | 0.219 | 0.625 | 0.721
pThr fixed | 0.747 | 0.655 | 0.926 | 1.36 | 0.306 | 0.367 | 0.24 | 0.711 | 0.556
pTyr fixed | 0.806 | 1.04 | 1.43 | 1.54 | 0.752 | 0.319 | 0.232 | 0.574 | 0.722
